# Data from patent US20090232730A1, “METHOD OF PRODUCING IMMUNOLIPOSOMES AND COMPOSITIONS THEREOF” (IMMUNE DISEASE INSTITUTE, INC., priority 2006, published 2009).
# {P} = phosphate
# What was measured:
# [1] = molecular target: integrin Mac-1 (αMβ2) (human) (UniProt P11215); experiment: flow cytometry on K562 cells expressing Mac-1; free antibody before lyophilization
# [2] = molecular target: integrin Mac-1 (αMβ2) (human) (UniProt P11215); experiment: flow cytometry on K562 cells expressing Mac-1; free antibody after lyophilization and reconstitution
# [3] = test system: CD4; experiment: CD4 silencing in human primary CD4+ cells by flow cytometry; format: cell-based; settings: formulated in immunomicelles, 30 pmol-1000 pmol
# Experimental: Human neutrophils or lymphocytes were isolated from freshly drawn blood as described (Carman et al. J. Immunology, 171 (2003) 6135-6144). CD4 blasts were generated by isolating CD4+ T cells from peripheral blood lymphocytes of normal donors by immunomagnetic beads (Miltenyi Biotech) as previously reported (Novina et al. Nature Med. 2002; 8(7): 681-6) and culturing them in RPMI 1640 containing 10% FCS for 3 days in the presence of 4 μg/mL phytohemagglutinin (PHA), then expend the cells with the same media (without PHA) but with IL-2 at 10 ng/mL for 3 more days.
# siRNA transfections were preformed with different formulations of siRNA targeted against human CD4, siRNA-luciferase, or siRNA-cy3. As a positive control we used Fugene 6 and ExGen 500 (PEI) transfection reagents. Cells were seeded in 24 or 96 well plates at a density of 5000−2×10^5 cells/well. […]
# [4] = molecular target: integrin Mac-1 (αMβ2) (human) (UniProt P11215); experiment: cell-based or functional assay
# [5] = molecular target: integrin Mac-1 (αMβ2) (human) (UniProt P11215); experiment: flow cytometry on K562 cells expressing Mac-1; carrier before lyophilization
# [6] = molecular target: integrin Mac-1 (αMβ2) (human) (UniProt P11215); experiment: flow cytometry on K562 cells expressing Mac-1; carrier after lyophilization and reconstitution
# [7] = test system: K562 mock cells; experiment: MTT cytotoxicity assay; format: cell-based, human; settings: MMC formulations
# Experimental: K562 cells (either K562 mock cells or K562 Mac-1 cells, stably transfected with Mac-1 integrin) were grown in 1×RPMI supplemented with 10% FBS. Exponentially growing cells were seeded at 2.5×10^5/ml in 24-well plates and either left untreated or treated with graded dosages of free mitomycin (MMC) or equivalent doses of MMC formulated in liposomes. The treatment media was selected from the following MMC formulations: (i) the test system, MMC-loaded tHA-CBRM1/29, (ii) MMC-loaded ULV-HA, (iii) free MMC, (iv) free MMC dissolved in a suspension of empty tHA-CBRM1/29 and (v) free MMC dissolved in a suspension of empty ULV-HA. In addition, there were 3 drug-free controls, consisting of: (vi) no addition (i.e., only the serum-supplemented growth medium), (vii) empty tHA-CBRM1/29 and (viii) empty ULV. In all formulations, the solvent was serum-supplemented cell growth medium. Cells were washed twice with Hepes-buffered saline (HBS) then re-incubated with drug-free media for additional 48 hours. Cells were spun down and re-suspended in 0.5 ml of MTT containing medium (0.5 mg/ml), and incubated at 37° C. for 1 h. […] After 5 min at room temperature, samples were spun down and 250-μl aliquots were used for absorbance measurements. Cell viability was measured as the difference in the absorbance 550 and 620 nm. […] Data are expressed as a percent of the control healthy growing cells.
# [8] = molecular target: integrin Mac-1 (αMβ2) (human) (UniProt P11215); experiment: flow cytometry on K562 cells expressing Mac-1; carrier after lyophilization and reconstitution (no cryoprotectant)
compound,measurement,setting,value
CBRM1/29-cy3 (antibody),MFI,[1],82
same,MFI,[2],73
"CD4-siRNA: siRNA targeted against human CD4, sense 5′-P.GAUCAAGAGACUCCUCAGUUU-3′, antisense 5′-P.ACUGAGGAGUCUCUUGAUCUU-3′ (RNA, 5' {P}, backbone not given here)",plateau of CD4 silencing dose response curve,[3],500 pmol
tHA-CBRM1/29-cy3 (antibody),"IC50 (MTT cytotoxicity assay, MMC entrapped in the carrier, K562 cells expressing Mac-1)",[4],1750 nM
same,"fold difference of IC50 against ULV-HA (no antibody), MTT cytotoxicity assay on K562 cells expressing Mac-1",[4],100 fold
same,MFI,[5],161
same,MFI,[6],172
"CO[C@@]12[C@H](COC(N)=O)C3=C(C(=O)C(C)=C(N)C3=O)N1C[C@@H]1N[C@@H]12 [free MMC, mitomycin C]",cell survival,[7],no significant changes in the cell survival
ULV-CBRM1/29-cy3 (antibody),mean fluorescence intensity,[5],175
same,mean fluorescence intensity,[8],5.6
